Test results taken from patent US20150351390A1, “COMPOSITIONS AND METHODS FOR AUXIN-ANALOG CONJUGATION” (PIONEER HI-BRED INTERNATIONAL, INC., priority 2012, published 2015).

Columns and labels:
[1] = LC-MS assay of GH3 conjugation of 2,4-D with Asp or Glu; assay type: biochemical; settings: 5 mM 2,4-D substrate; for kcat (hrs−1) 2,4-D-Asp: conjugation of 2,4-D with Asp by recombinant GH3 protein, 2,4-D-Asp product by LC-MS; for kcat (hrs−1) 2,4-D-Glu: conjugation of 2,4-D with Glu by recombinant GH3 protein, 2,4-D-Glu product by LC-MS
Procedure, shortened: (§1)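 Rxn: 20 mM Tris-HCl pH 8.0, 5 mM MgCl2, 1 mM DTT, 5 mM ATP, 5 mM auxin, 5 mM Asp/Glu, 44–164 μg/mL purified His-GH3; 30° C., 3 h. MeOH quench, supernatant diluted 20×, LC-MS vs conjugate standards.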

[2] = LC-MS assay of GH3 conjugation of IAA with Asp or Glu; assay type: biochemical; settings: for kcat (hrs−1) IAA-Asp: conjugation of IAA with Asp by recombinant GH3 protein, IAA-Asp product by LC-MS; for kcat (hrs−1) IAA-Glu: conjugation of IAA with Glu by recombinant GH3 protein, IAA-Glu product by LC-MS
Procedure, shortened: as §1

Molecule	kcat (hrs−1) 2,4-D-Asp [1] [h⁻¹]	kcat (hrs−1) 2,4-D-Glu [1] [h⁻¹]	kcat (hrs−1) IAA-Asp [2] [h⁻¹]	kcat (hrs−1) IAA-Glu [2] [h⁻¹]
AIGH3-3: GH3 protein, accession XP_002880486 (protein, listed as Arabidopsis lyrata) MTVDLPLRSPMNYSPSDKDVKALRFIEEMIRNVDFVQNKVIREILRRNSETEYLKRFGLKGFTDRKAFKTKVPVVTYDDLKPEIQRIANGDRSMILSSHPITEFLTSSGTSAGERKLMPTIEEDMDRRQLLYSLLMPVMNLYVPGLDKGKALYFLFVKTESKTPGGLPARPVLTSYYKSEQFKRRPYDPYNVYTSPNEAILCPDSSQSMYTQMLCGLLMRHEVLRLGAVFASGLLRAIGFLQTNWKELANDISTGTLSSRISDPAIKESMSKILTKPDQELADFITSVCGQDNNWEGIITKIWPNTKYLDVIVTGAMAQYIPMLEYYSGGLPMACTMYASSESYFGINLKPMCKPSEVSYTIMPNMAYFEFLPHEVPTGKSELVELADVEVGKEYELVITTYAGLNRYRVGDILQVTGFYNSAPQFKFVRRKNVLLSIESDKTDEAELQKAVENASVLLGEQGNRVIEYTSYAETKTIPGHYVIYWELLVKDQTNPPNDEVMARCCLEMEESLNSVYRQSRVADKSIGPLEIRVVKNGTFEELMDYAISRGASINQYKVPRCVSFTPIMELLDSRVVSTHFSPALPHWSPERRC	1.566	0.172	3315.262	71.865
AIGH3-1: GH3 protein, accession XP_002885948 (protein, listed as Arabidopsis lyrata) MAVDSNLSSPLGPPACEKDAKALRFIEEMTRNADTVQENLLAEILARNANTEYLRRFNLGGATDRDTFKTKIPVITYEDLQPEIQRIADGDRSPILSSHPISEFLTSSGTSAGERKLMPTIREELDRRQLLYSLLMPVMNLYVPGLDKGKGMYFLFVKSESKTPGGLPARPVLTSYYKSEHFRSRPYDPYNVYTSPNEAILCPDSFQSMYTQMLCGLLDRLSVLRVGAVFASGLLRAIRFLQLHWSRFANDIELGCLDSEITDPSIRQCMSGILKPDPVLAEFIRRECKSDNWERIITRIWPNTKYLDVIVTGAMAQYIPTLEYYSGGLPMACTMYASSECYFGLNLNPMSKPSEVSYTIMPNMAYFEFIPLGGTKAVELVDVKIGKEYELVVTTYAGLCRYRVGDILRVTGFHNSAPQFHFVRRKNVLLSIDSDKTDESELQKAVENASKILHEECGSRVAEYTSYADTSTIPGHYVLYWELLVRDGARQPSHETITRCCLEMEESLNSVYRQSRVADNSVGPLEIRVVRNGTFEELMDYAISRGASINQYKVPRCVNFTPIVELLDSRVVSAHFSPSLPHWTPERRRR	2.057	0.525	436.828	14.961
AIGH3-6: GH3 protein, accession XP_002866046 (protein, listed as Arabidopsis lyrata) MPEAPKIVALEVSDESLAEKNKNKLQFIEDVTTNADDVQRRVLEEILSRNADVEYLKRHGLDGRTDRETFKHVMPVVTYEDIQPEINRIANGDKSQILCSNPISEFLTSSGTSGGERKLMPTIEEELDRRSLLYSLLMPVMNQFVPGLDKGKGMYFLFIKSESKTPGGLPARPVLTSYYKSSHFKNRPFDPYNNYTSPNQTILCSDSYQSMYSQMLCGLCQHKEVLRVGAVFASGFIRAIKFLEKHWSELARDIRTGTLSSEITDLSVREAVGEILKPDPKLADFVESECRKTSWQGIITRLWPNTKYVDVIVTGTMSQYIPTLDYYSNGLPLVCTMYASSECYFGVNLRPLCKPSEVSYTLIPNMAYFEFLPVHRNSGVTSSISLPKALTEKEQQELVDLVDVKLGQEYELVVTTYAGLYRYRVGDVLSVAGFKNNAPQFSFICRKNVALSIDSDKTDEVELQNAVKNAVTHLVPFDASLSEYTSYAETSSIPGHYVLFWELCLNGNTPIPPSVFEDCCLTIEESLNSVYRQGRVSDKSIGPLEIKMVESGTFDKLMDYAISLGASINQYKTPRCVKFAPIIELLNSRVVDSYFSPKCPKWAPGHKQWGSN	1.300	0.211	413.293	20.881
AIGH3-2: GH3 protein, accession XP_002868993 (protein, listed as Arabidopsis lyrata) MAVDSPLQSRMVSPTTSEKDVKALKFIEEMTRNPDSVQEKVLGEILSRNSNTEYLKRFDINGAIDRNTFKNKVPVVTYEDLKPEIQRISNGDRSPILSSHPITEFLTSSGTSAGERKLMPTIEEDLDRRQLLYSLLMPVMNLYVPGLDKGKGLYFLFVKSESKTSGGLPARPVLTSYYKSDHFRRRPYDPYNVYTSPNEAILCSDSSQSMYAQMLCGLLMRHEVLRLGAVFASGLLRAISFLQNNWKELARDISTGTLSSRIFDPTIKNRMSKILIKPDQELAEFLIGVCSQENWEGIITKIWPNTKYLDVIVTGAMAQYIPTLEYYSGGLPMACTMYASSESYFGINLKPMCKPSEVSYTIMPNMAYFEFLPHNHDGDGATEASLDETSLVELADVEVGKEYELVITTYAGLYRYRVGDILRVTGFHNSAPQFKFIRRKNVLLSIESDKTDEAELQKAVENASRLFAEQGTRVIEYTSYAETKTIPGHYVIYWELLGRDQSNALPSEEVMAKCCLEMEESLNSVYRQSRVADKSIGPLEIRLVQNGTFEELMDYAISRGASINQYKVPRCVSFTPIMELLDSRVVSAHFSPSLPHWSPERRR	1.903	0.309	583.500	13.953
OsGH3-13: GH3 protein, accession EAY81150 (protein, listed as Oryza sativa) MTSTSSENALDHDHDHDASSPAPATATAAALPPMIPACDPHDGPACLELIEVLTTRAAAVQRRVLAEVLAMNTGTDYLRRFLGDEVAAAAGGEDELAAAFKERVPVVEYEDVKPYIERIANGAPSSLISSKPITELLTSSGTSGGQPKLMPATEEELDRKTFLYNLLVPVMNKYVEGLDEGRGMYLLFVKPEITTASGMVARPVLTSYYKSRHFRRRPDSPYTRYTSPDAAILCPDSRQSMYAQLLCGLARRGEVLRVGAVFASAFLRAVKFLEGHWRALCADIRAGRADPAVVTDAACRGAVDAVLAARADPDLADAIAAECGGASWRGIVRRLWPRTKYIDVIVTGSMAQYIPLLEFYGGGLPLVSTMYASSESYFGINLRPLDPPEEVVYTLLPNMCYYEFIKVEKDGDGEKVRDGEVVDLVGVEVGAYYELVVTTFTGLYRYRVGDILQVAGFHNAAPQFRFVHRRNVVLSVDTDKTSEDDLLRAVTAAKPLLDPLSCVLAEYTAYADTSSIPGHYVLFWELTPSPSPPPPPCHDDANDAADIGEDKDKVAHVMAACCAAVEAGLDSVYRRCRSRDRSIGPLEIRVVAPGAFDALMDMCVSHGSSVNQYKTPRCIKHPDAIAVLEQRVVGRFFSDAVPHWEPLKVDGAAAAPATGSDQ	0.639	5.237	10.812	494.321
AIGH3-4: GH3 protein, accession XP_002886679 (protein, listed as Arabidopsis lyrata) MAVDSPLQSRIASPTTSEKDMKALMFIEEMTRNPDSVQEKVLGEILSRNSNTEYLKRFDLNGAVDRKTFKSKVPVVMYEDLKTEIQRISNGDRSPILSSHPINEFLTSSGTSSGERKLMPTIEEDIHRRQLLGSLLMPVMNLYLPGLDKGKGLYFLFVKSESKTSGGLPARPALTSYYKSDHFKTSDLQNDYTSPREAILCSDSSQSMYAQMLCGLLMRHEVLRLGAVFPSGLLRAISFLQNNWKELAQDISTGILSSKIFDPAVNNRMSKILNKPDEELAEFLIGVCSQENWEGIITKIWPNTKYLDVIITGAMAQYIPMLEYYSGGLPIASTIYASSESYFGINLNPMCKPSEVSYTIMPNMAYFEFLPHNHDGDGALDETSLVELADVEVGKEYELVITTYAGLYRYRVGDILCVTGFHNSAPQFKFIRRKNVLLSIESDKTDEADLQKAVDNASRLLAEQGTSVIEYTSYAETKTIPGHYVIYWELLGRDQSNALPSDEVMAKCCLEMEESLNSVYRQSRVSDKSIGPLEIRVVQNGTFDELMDYAISRGSSINQYKVPRCVSLTPILELLDSRVVSAHFSTSLPHWSPERRH	0.040	0.006	3.013	0.000
AIGH3-5: GH3 protein, accession XP_002869571 (protein, listed as Arabidopsis lyrata) MPEAPKKVSLEVFDLTLDQKNKQKLQLIEELTSNADQFQRRVLEEILSRNADVEYLRRHYLNGRTDRETFKNVMPVITYEDIQPEINRIANGDKSPILSSKPISEFLTSSGTSGGERKLMPTIEEELDRRSLLYSLLMPVMSQFVPGLENGKGMYFLFIKSESKTPGGLPARPVLTSYYKSSHFKERPYDPYTNYTSPNETILCSDSYQSMYSQMLCGLCQHQEVLRVGAVFASGFIRAIKFLEKHWTELVRDIRTGTLSSLITDPSVREAVSKILKPNSKLAEFVEFECKKSSWQGIITRLWPNTKYVDVIVTGTMSQYIPTLDYYSNGLPLVCTMYASSECYFGVNLRPLCKPSEVSYTLIPSMAYFEFLPVHRNNGVTNSINLPKALTEKEQQELVDLVDVKLGQEYELVVTTYAGLCRYRVGDLLRVTGFKNKAPQFSFICRKNVVLSIDADKTDEVELQNAVKNAVTYLVPFDASLSEYTSYADTSSIPGHYVLFWELCLDGNTPIPPSVFEDCCLTVEESFNTVYRQGRVSDKSIGPLEIKIVEPGTFDKLMDYAISLGASINQYKTPRCVKFAPIIELLNSRVVNSYLSPKCPKWVPGHKQWGSN	1.586	0.421	429.073	24.704
